The values that follow come from patent US20200055896.

The target of data set [1] is T1, GP probe: fluorescence-quenched peptide of the region flanking the C-terminal human FGF21 cleavage site (VGPSQG).
T1 chain: VGPSQGK

The target in data set [2] is ANPFAP, internally-quenched FRET peptide substrate for FAP (Li et al. 2012).
For data set [3], the target named is EP probe: fluorescence-quenched peptide of the homologous region of murine FGF21.

B1: FAP in mouse plasma (protein)
chain: IVLRPSRVYKPEGNTKRALTLKDILNGTFSYKTYFPNWISEQEYLHQSEDDNIVFYNIETRESYIILSNSTMKSVNATDYGLSPDRQFVYLESDYSKLWRYSYTATYYIYDLQNGEFVRGYELPRPIQYLCWSPVGSKLAYVYQNNIYLKQRPGDPPFQITYTGRENRIFNGIPDWVYEEEMLATKYALWWSPDGKFLAYVEFNDSDIPIIAYSYYGDGQYPRTINIPYPKAGAKNPVVRVFIVDTTYPHHVGPMEVPVPEMIASSDYYFSWLTWVSSERVCLQWLKRVQNVSVLSICDFREDWHAWECPKNQEHVEESRTGWAGGFFVSTPAFSQDATSYYKIFSDKDGYKHIHYIKDTVENAIQITSGKWEAIYIFRVTQDSLFYSSNEFEGYPGRRNIYRISIGNSPPSKKCVTCHLRKERCQYYTASFSYKAKYYALVCYGPGLPISTLHDGRTDQEIQVLEENKELENSLRNIQLPKVEIKKLKDGGLTFWYKMILPPQFDRSKKYPLLIQVYGGPCSQSVKSVFAVNWITYLASKEGIVIALVDGRGTAFQGDKFLHAVYRKLGVYEVEDQLTAVRKFIEMGFIDEERIAIWGWSYGGYVSSLALASGTGLFKCGIAVAPVSSWEYYASIYSERFMGLPTKDDNLEHYKNSTVMARAEYFRNVDYLLIHGTADDNVHFQNSAQIAKALVNAQVDFQAMWYSDQNHGISSGRSQNHLYTHMTHFLKQCFSLSD
Regarding B1, the “cleavage of the GP probe in mouse plasma, with cpd60 and KYP-2047” value in data set [1] is listed as “FAP is the major enzyme responsible for the cleavage of the GP probe in plasma”.

B2: Human prolyl oligopeptidase (PREP, 4308-SE) (protein)
chain: MLSLQYPDVYRDETAVQDYHGHKICDPYAWLEDPDSEQTKAFVEAQNKITVPFLEQCPIRGLYKERMTELYDYPKYSCHFKKGKRYFYFYNTGLQNQRVLYVQDSLEGEARVFLDPNILSDDGTVALRGYAFSEDGEYFAYGLSASGSDWVTIKFMKVDGAKELPDVLERVKFSCMAWTHDGKGMFYNSYPQQDGKSDGTETSTNLHQKLYYHVLGTDQSEDILCAEFPDEPKWMGGAELSDDGRYVLLSIREGCDPVNRLWYCDLQQESSGIAGILKWVKLIDNFEGEYDYVTNEGTVFTFKTNRQSPNYRVINIDFRDPEESKWKVLVPEHEKDVLEWIACVRSNFLVLCYLHDVKNILQLHDLTTGALLKTFPLDVGSIVGYSGQKKDTEIFYQFTSFLSPGIIYHCDLTKEELEPRVFREVTVKGIDASDYQTVQIFYPSKDGTKIPMFIVHKKGIKLDGSHPAFLYGYGGFNISITPNYSVSRLIFVRHMGGILAVANIRGGGEYGETWHKGGILANKQNCFDDFQCAAEYLIKEGYTSPKRLTINGGSNGGLLVAACANQRPDLFGCVIAQVGVMDMLKFHKYTIGHAWTTDYGCSDSKQHFEWLVKYSPLHNVKLPEADDIQYPSMLLLTADHDDRVVPLHSLKFIATLQYIVGRSRKQSNPLLIHVDTKAGHGAGKPTAKVIEEVSDMFAFIARCLNVDWIP
B2: in data set [1], the “cleavage of fluorescence-quenched peptide (FRET-quench assay), 1 nM enzyme” value is recorded as “both enzymes readily cleaved the GP peptide”. Also, the “cleavage of quenched-FRET peptide, 10 nM enzyme” value in data set [2] was “both FAP and PREP efficiently cleave ANPFAP in vitro”.

B3: N-terminal octa-His-tagged mouse FAP protein containing the extracellular domain (residues L26-D761) (protein)
chain: LRPSRVYKPEGNTKRALTLKDILNGTFSYKTYFPNWISEQEYLHQSEDDNIVFYNIETRESYIILSNSTMKSVNATDYGLSPDRQFVYLESDYSKLWRYSYTATYYIYDLQNGEFVRGYELPRPIQYLCWSPVGSKLAYVYQNNIYLKQRPGDPPFQITYTGRENRIFNGIPDWVYEEEMLATKYALWWSPDGKFLAYVEFNDSDIPIIAYSYYGDGQYPRTINIPYPKAGAKNPVVRVFIVDTTYPHHVGPMEVPVPEMIASSDYYFSWLTWVSSERVCLQWLKRVQNVSVLSICDFREDWHAWECPKNQEHVEESRTGWAGGFFVSTPAFSQDATSYYKIFSDKDGYKHIHYIKDTVENAIQITSGKWEAIYIFRVTQDSLFYSSNEFEGYPGRRNIYRISIGNSPPSKKCVTCHLRKERCQYYTASFSYKAKYYALVCYGPGLPISTLHDGRTDQEIQVLEENKELENSLRNIQLPKVEIKKLKDGGLTFWYKMILPPQFDRSKKYPLLIQVYGGPCSQSVKSVFAVNWITYLASKEGIVIALVDGRGTAFQGDKFLHAVYRKLGVYEVEDQLTAVRKFIEMGFIDEERIAIWGWSYGGYVSSLALASGTGLFKCGIAVAPVSSWEYYASIYSERFMGLPTKDDNLEHYKNSTVMARAEYFRNVDYLLIHGTADDNVHFQNSAQIAKALVNAQVDFQAMWYSDQNHGISSGRSQNHLYTHMTHFLKQCFSLSD
Consider B3, for which, in data set [3], the “cleavage of fluorescence-quenched peptide (FRET-quench assay)” value is reported as “purified recombinant mouse FAP protein cleaved the GP but not GG or EP probes”. Besides, in data set [1], the “catalytic efficiency (Michaelis-Menten kinetics)” value is recorded as “mouse FAP exhibited a lower catalytic efficiency than human FAP, mainly due to a reduced kcat” and the “cleavage of fluorescence-quenched peptide (FRET-quench assay)” value is “purified recombinant mouse FAP protein cleaved the GP but not GG or EP probes”.
